Laboratory results reported in IntAct's records for PubMed 23746845.

B1: Telomere length regulator protein RIF1 (Saccharomyces cerevisiae), P29539 (parent)
chain: MSKDFSDKKKHTIDRIDQHILRRSQHDNYSNGSSPWMKTNLPPPSPQAHMHIQSDLSPTPKRRKLASSSDCENKQFDLSAINKNLYPEDTGSRLMQSLPELSASNSDNVSPVTKSVAFSDRIESSPIYRIPGSSPKPSPSSKPGKSILRNRLPSVRTVSDLSYNKLQYTQHKLHNGNIFTSPYKETRVNPRALEYWVSGEIHGLVDNESVSEFKEIIEGGLGILRQESEDYVARRFEVYATFNNIIPILTTKNVNEVDQKFNILIVNIESIIEICIPHLQIAQDTLLSSSEKKNPFVIRLYVQIVRFFSAIMSNFKIVKWLTKRPDLVNKLKVIYRWTTGALRNENSNKIIITAQVSFLRDEKFGTFFLSNEEIKPIISTFTEIMEINSHNLIYEKLLLIRGFLSKYPKLMIETVTSWLPGEVLPRIIIGDEIYSMKILITSIVVLLELLKKCLDFVDEHERIYQCIMLSPVCETIPEKFLSKLPLNSYDSANLDKVTIGHLLTQQIKNYIVVKNDNKIAMDLWLSMTGLLYDSGKRVYDLTSESNKVWFDLNNLCFINNHPKTRLMSIKVWRIITYCICTKISQKNQEGNKSLLSLLRTPFQMTLPYVNDPSAREGIIYHLLGVVYTAFTSNKNLSTDMFELFWDHLITPIYEDYVFKYDSIHLQNVLFTVLHLLIGGKNADVALERKYKKHIHPMSVIASEGVKLKDISSLPPQIIKREYDKIMKVVFQAVEVAISNVNLAHDLILTSLKHLPEDRKDQTHLESFSSLILKVTQNNKDTPIFRDFFGAVTSSFVYTFLDLFLRKNDSSLVNFNIQISKVGISQGNMTLDLLKDVIRKARNETSEFLIIEKFLELDDKKTEVYAQNWVGSTLLPPNISFREFQSLANIVNKVPNENSIENFLDLCLKLSFPVNLFTLLHVSMWSNNNFIYFIQSYVSKNENKLNVDLITLLKTSLPGNPELFSGLLPFLRRNKFMDILEYCIHSNPNLLNSIPDLNSDLLLKLLPRSRASYFAANIKLFKCSEQLTLVRWLLKGQQLEQLNQNFSEIENVLQNASDSELEKSEIIRELLHLAMANPIEPLFSGLLNFCIKNNMADHLDEFCGNMTSEVLFKISPELLLKLLTYKEKPNGKLLAAVIEKIENGDDDYILELLEKIIIQKEIQILEKLKEPLLVFFLNPVSSNMQKHKKSTNMLRELVLLYLTKPLSRSAAKKFFSMLISILPPNPNYQTIDMVNLLIDLIKSHNRKFKDKRTYNATLKTIGKWIQESGVVHQGDSSKEIEAIPDTKSMYIPCEGSENKLSNLQRKVDSQDIQVPATQGMKEPPSSIQISSQISAKDSDSISLKNTAIMNSSQQESHANRSRSIDDETLEEVDNESIREIDQQMKSTQLDKNVANHSNICSTKSDEVDVTELHESIDTQSSEVNAYQPIEVLTSELKAVTNRSIKTNPDHNVVNSDNPLKRPSKETPTSENKRSKGHETMVDVLVSEEQAVSPSSDVICTNIKSIANEESSLALRNSIKVETNCNENSLNVTLDLDQQTITKEDGKGQVEHVQRQENQESMNKINSKSFTQDNIAQYKSVKKARPNNEGENNDYACNVEQASPVRNEVPGDGIQIPSGTILLNSSKQTEKSKVDDLRSDEDEHGTVAQEKHQVGAINSRNKNNDRMDSTPIQGTEEESREVVMTEEGINVRLEDSGTCELNKNLKGPLKGDKDANINDDFVPVEENVRDEGFLKSMEHAVSKETGLEEQPEVADISVLPEIRIPIFNSLKMQGSKSQIKEKLKKRLQRNELMPPDSPPRMTENTNINAQNGLDTVPKTIGGKEKHHEIQLGQAHTEADGEPLLGGDGNEDATSREATPSLKVHFFSKKSRRLVARLRGFTPGDLNGISVEERRNLRIELLDFMMRLEYYSNRDNDMN
partner: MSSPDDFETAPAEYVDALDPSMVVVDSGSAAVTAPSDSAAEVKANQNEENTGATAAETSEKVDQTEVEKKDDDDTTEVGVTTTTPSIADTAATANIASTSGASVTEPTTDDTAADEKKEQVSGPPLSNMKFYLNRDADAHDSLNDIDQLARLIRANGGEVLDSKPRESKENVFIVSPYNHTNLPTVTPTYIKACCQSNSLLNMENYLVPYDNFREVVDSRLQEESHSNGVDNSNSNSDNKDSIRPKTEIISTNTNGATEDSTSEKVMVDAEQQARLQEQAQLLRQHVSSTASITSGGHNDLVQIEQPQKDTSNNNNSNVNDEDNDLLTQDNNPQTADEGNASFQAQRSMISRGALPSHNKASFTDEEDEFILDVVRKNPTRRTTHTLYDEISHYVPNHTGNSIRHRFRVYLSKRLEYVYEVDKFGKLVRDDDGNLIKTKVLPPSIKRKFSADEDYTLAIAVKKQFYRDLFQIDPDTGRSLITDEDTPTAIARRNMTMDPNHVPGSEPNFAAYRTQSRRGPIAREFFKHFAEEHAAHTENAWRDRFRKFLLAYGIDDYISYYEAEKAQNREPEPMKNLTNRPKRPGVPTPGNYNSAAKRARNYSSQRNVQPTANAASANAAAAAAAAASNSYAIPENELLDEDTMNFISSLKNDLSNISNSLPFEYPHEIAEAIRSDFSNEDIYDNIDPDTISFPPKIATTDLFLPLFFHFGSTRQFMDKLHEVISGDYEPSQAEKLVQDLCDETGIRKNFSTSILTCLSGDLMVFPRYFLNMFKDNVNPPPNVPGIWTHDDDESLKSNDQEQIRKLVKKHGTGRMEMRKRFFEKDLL
B2: DNA-binding protein RAP1 (Saccharomyces cerevisiae), P11938 (parent)
chain: B1 partner

Variants of: B1
Settings: with rap1_yeast RAP1, P11938

Row | Variant | effect of a mutation on the interaction
1 | L1905R | decreasing interaction strength

Variants of: B1
Settings: with rap1_yeast RAP1, P11938
Remark: another data set of the same source

Row | Variant | effect of a mutation on the interaction
2 | I1760R | disrupting interaction strength
3 | I1762R | disrupting interaction strength
4 | I1764R | disrupting interaction strength

More lines, now with the values ahead:

Row | effect of a mutation on the interaction | Variant
5 | disrupting interaction strength | L1905R
6 | decreasing interaction strength | R1895E

Variants of: B2
Settings: with rif1_yeast RIF1, P29539

Row | Variant | effect of a mutation on the interaction
7 | A733R | disrupting interaction strength
8 | G760R | disrupting interaction strength
